Test results taken from patent US20090233993A1, “COMPOSITIONS AND METHODS FOR INHIBITING GSK3 ACTIVITY AND USES THEREOF” (Burnham Institute for Medical Research, priority 2008, published 2009).
Several values for one entry are separate records, joined by “and”; a condition that tells them apart may be missing. Identical values can stand only once. Entries after “also recorded” stand apart in the source; their conditions may differ.

How the values were obtained:
PKC = PKC activity in N2a cell lysates (32P peptide substrate); format: cell-based, mouse; settings: FG01 overexpression in N2a cells
Experimental: N2a cells were transfected with pcDNA or FG01. After lysis, cell lysates containing […] of total proteins were incubated with synthesized PKC specific peptide substrate and ^32P-ATP. The ^32P labeled peptides were captured and the radioactivities were quantified by scintillation. The activities of PKC were represented by the normalized radioactivities of the labeled peptide substrates. n=4.

β-catenin = β-catenin level in mouse N2a cells (Western blot); format: cell-based; settings: FG01 overexpression
Source text: (§1) The levels of total GSK-3 were used as normalization factors.

GSK-3α/β [1] = experiment: phospho-GSK-3α/β Western blot in human HeLaSwe and HEK293 cells; format: cell-based
Source text: Expression of β-catenin, inactivated phospho-GSK-3β, total GSK-3, APP, β-CTF and FG01 in transfected human HEK293 cells were shown by Western blots.
(§2) Although the possibility that FG01 may modulate substrate specificity or accessibility to γ-secretase can not be excluded, it is equally possible that FG01 regulates other proteins/pathways functioning in APP processing and Aβ generation. […] Thus, the activities of GSK-3α/β were studied in the presence or absence of FG01 overexpression by examining levels of phospho-GSK-3α (Ser 21) and phospho-GSK-3β (Ser 9) (which represent inactivated forms of GSK-3) and by in vitro kinase assays.

CDK5 [2] = experiment: CDK5 levels by Western blot in transfected HeLa and MFB cells; format: cell-based, mouse and human; settings: FG01-transfected HeLa and MFB cells
Source text: The expression of CDK5, FG01 and α-tubulin were detected by Western blots in transfected HeLa and MFB cells.

Aβ generation = Aβ generation / APP processing in N2aSwe cells overexpressing FG01 (IP-Western blot); format: cell-based, mouse
Experimental: To investigate FG01's effects on Aβ generation, the His6-tagged recombinant FG01 was overexpressed in N2aSwe cells. The levels of βCTF, APP, sAPPα and secreted and intracellular Aβ were then quantified in the transfected cells and compared to those parental cells.
The His6-tagged FG01 was overexpressed in N2aSwe cells. The secreted and intracellular Aβ were immunoprecipitated by 4G8. The precipitated peptides and sAPPα, βCTF, full length APP and FG01 were analyzed by Western blots. α-tubulin was used as loading control. The levels of the proteins were quantified by densitometry and normalized and compared to those in vector transfected control.
To corroborate this, FG01 was over expressed in N2aSwe cells.

GSK-3β = GSK-3β in vitro kinase activity after immunoprecipitation from N2aSwe cells; format: cell-based, mouse; settings: in vitro kinase assay, FG01-overexpressing N2aSwe cells vs control
Source text: (§3) The levels of the recombinant Notch (NotchΔE with Myc-tag) and the γ-secretase cleaved Notch fragment (NICD) were quantified by Western blotting using myc antibody and an antibody specific to processed Notch followed by densitometry. […] The results represent at least four independent experiments.
Commercial kits were used to assay in vitro activities of GSK-3β (Sigma) and PKA (Upstate). For GSK-3α activity, a commercial GSK-3β activity assay kit was used but the procedure to immunoprecititate GSK-3β was replaced with immunoprecipitation of GSK-3α using an anti-GSK-3α antibody (Cell Signaling). cAMP levels were assayed using a commercial kit (Biovision).

tau = tau phosphorylation (Thr205, PHF-1) in N2aSwe cells cotransfected with human tau T40; format: cell-based
Experimental: Since GSK-3 can phosphorylate tau at multiple sites, it was determined whether FG01 can affect tau phosphorylation by GSK-3. The human longest tau splicing variant T40 was cotransfected with FG01 or expression vector (control) into N2aSwe cells, and the tau phosphorylation examined at Thr205 and PHF-1 tauepitope (Ser396 and Ser404), which are GSK-3 phosphorylation targets and major paired helical filament (PHF) tau sites found in NFTs. […] In addition, little change was found in CDK5 protein level and its in vitro activity upon FG01 overexpression.
The human tau T40 was co-transfected with either FG01 or the expression vector into N2aSwe cells. The phospho-tau at Thr205 and PHF-1 and total tau proteins in the transfected cells were detected by Western blots (left). The levels of phospho-tau at the examined sites were quantified by densitometry and normalized to the total levels (right).
(§4) GSK-3 is a major kinase that phosphorylates tau in AD (Flaherty et al., 2000). […] N2aSwe cells were cotransfected with the human tau splice variant T40 and with FG01 (or control vectors), and examined tau phosphorylation at the threonine 205 site (Thr205) and the PHF-1 tau epitope sites (serine 396 and serine 404), which are GSK-3 phosphorylation targets, and at the major paired helical filament (PHF) sites found in NFTs. […] Protein levels and activity of CDK5, another kinase mediating tau phosphorylation in AD (Flaherty et al., 2000), was analyzed following FG01 overexpression. […] N2a cells were transfected with FG01 or a control vector (Con). Equal cell lysate proteins were used for assaying in vitro CDK5 activity.

CDK5 [3] = experiment: CDK5 protein level and in vitro activity in N2a cells; format: cell-based, mouse; settings: FG01 overexpression
Experimental: The in vitro activity of CDK5 was assayed as described (Han et al., 2005). Briefly, CDK5 protein was immunoprecipitated and incubated with histone-H1 in [γ-^32P]ATP-containing buffer. After reaction termination, samples were subjected to SDS-PAGE and autoradiography. Results were quantified using a PhosphoImager (Molecular Dynamics).
as §4

GSK-3α/β [4] = experiment: phospho-GSK-3α (Ser21)/GSK-3β (Ser9) Western blot in mouse N2a/N2aSwe cells; format: cell-based
Source text: The accumulation of βCTF can also be attributed to decrease in γ-secretase cleavage. However, the Notch cleavage was not altered by overexpression of the recombinant FG01 (FIG. 9A). […] Thus, the activities of GSK-3α/β were examined with or without overexpressing FG01. First, the levels of phospho-GSK3α at Ser21 and GSK-3β at Ser9 (the inactivated forms of GSK3) were quantified using the specific antibodies.
as §3, §1, §2

GSK-3α/β [5] = experiment: phospho-GSK-3α/β Western blot in rat PC12 cells; format: cell-based; settings: FG01 overexpression
Source text: as §2

[6] = FG01-transfected N2aSwe cells, 5 mM LiCl 4 hrs
[7] = FG01 overexpression in N2aSwe cells
[8] = human tau T40 cotransfected with FG01

B1: FG01: 141 amino acid transmembrane protein encoded by mouse retrogene fg01 (SEQ ID NO:2); expressed from transfected vector or transgene (protein)
chain: MQSQQRNIGYFNHLKADSRNITYSMTFSTKSSNQNFIIFLNEVQAAIIGHERCDLLPVLNELHPDALPDGRIWLFGLNPYFFQHNSLCMRGTPKRIGLQGCAQVGFLVLFVMPLLIPSVTAELPGSSETTTLAHLAGATGP
modifications: Myc and His6 tags; homo sapien
notes: expressed from transfected vector or transgene
PKC activity (PKC): increased
level of β-catenin (β-catenin): increases
GSK-3 activities (inactivated phospho-GSK-3β) (GSK-3α/β [1]; FG01 expression, human HEK293 cells, Western blot): decreases
phospho-GSK-3α (Ser21) and phospho-GSK-3β (Ser9) levels (GSK-3α/β [1]; FG01 overexpression, human HeLaSwe and HEK293 cells): more highly phosphorylated
levels of CDK5 (CDK5 [2]): did not change
Aβ production in the presence of lithium (Aβ generation; [6]): could not further reduce
levels of extracellular and intracellular Aβ (Aβ generation; [7]): dramatically reduced
levels of total APP (Aβ generation; [7]): not affected
sAPPα level (Aβ generation; [7]): stimulated; also recorded: greatly increased
βCTF level (Aβ generation; [7]): greatly accumulated; also recorded: greatly increased
levels of secreted and intracellular Aβ, reduction (Aβ generation; His6-tagged FG01 overexpressed in N2aSwe cells vs control, Aβ40 and 42 equally reduced): more than 50%
Aβ levels in LiCl-pretreated cells (Aβ generation; N2a/swe cells pretreated with 5 mM LiCl for 24 hrs before FG01 transfection): did not further decrease
decrease in GSK-3β activity (GSK-3β): ~30% and 40%
total tau levels (tau; [8]): without affecting
unphosphorylated tau levels (tau; [8]): increased
tau phosphorylation at GSK-3 target sites (tau; human tau T40 cotransfected with FG01 in N2aSwe cells): significantly decreased
decrease of tau phosphorylation at Thr205 and PHF-1 epitope (Ser396, Ser404) (tau; human tau T40 cotransfected with FG01 in N2aSwe cells, densitometry): ~60%
CDK5 in vitro activity (CDK5 [3]): Little change
CDK5 protein level (CDK5 [3]): Little change
GSK-3α/β activity in the presence of lithium (GSK-3α/β [4]; [6]): could not further reduce
GSK-3 activities (inactivated phospho-GSK-3β) (GSK-3α/β [4]; FG01 overexpression, mouse N2a cells, Western blot): decreases
phospho-GSK-3α (Ser21) and phospho-GSK-3β (Ser9) levels (inactivated forms) (GSK-3α/β [4]; FG01 overexpression, mouse N2aSwe cells): more GSK-3α/β were phosphorylated; also recorded: more highly phosphorylated
phospho-GSK-3α (Ser21) and phospho-GSK-3β (Ser9) levels (GSK-3α/β [5]): more highly phosphorylated
